According to patent US20260250410A1 (SICHUAN HUIYU PHARMACEUTICAL, published 2026):

T1: human CDCP1 on tumor cells (human, UniProt Q9H5V8 30-836)
T1 construct: whole, on cells; cell line is named under assay or readout
T1 sequence (looked up): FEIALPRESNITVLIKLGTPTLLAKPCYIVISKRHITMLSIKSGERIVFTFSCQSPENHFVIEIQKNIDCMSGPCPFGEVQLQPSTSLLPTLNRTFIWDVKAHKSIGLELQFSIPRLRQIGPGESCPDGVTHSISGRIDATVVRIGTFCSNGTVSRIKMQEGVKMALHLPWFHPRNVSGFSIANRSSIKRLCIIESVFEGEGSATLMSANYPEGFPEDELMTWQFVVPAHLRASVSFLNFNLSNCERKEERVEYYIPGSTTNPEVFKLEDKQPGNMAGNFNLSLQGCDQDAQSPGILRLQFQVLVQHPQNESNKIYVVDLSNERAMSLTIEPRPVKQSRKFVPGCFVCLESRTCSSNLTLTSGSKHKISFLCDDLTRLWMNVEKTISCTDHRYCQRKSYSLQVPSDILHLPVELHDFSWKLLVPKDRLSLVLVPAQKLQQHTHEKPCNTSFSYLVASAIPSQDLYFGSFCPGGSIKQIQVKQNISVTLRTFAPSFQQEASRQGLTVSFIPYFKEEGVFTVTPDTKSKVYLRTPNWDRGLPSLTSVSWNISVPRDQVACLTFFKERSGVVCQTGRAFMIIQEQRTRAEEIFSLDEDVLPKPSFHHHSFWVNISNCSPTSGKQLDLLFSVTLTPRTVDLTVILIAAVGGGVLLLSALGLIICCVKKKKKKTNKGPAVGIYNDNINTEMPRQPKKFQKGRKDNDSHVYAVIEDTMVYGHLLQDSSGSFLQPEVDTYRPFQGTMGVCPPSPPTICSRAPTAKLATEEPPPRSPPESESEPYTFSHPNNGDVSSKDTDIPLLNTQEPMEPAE


Target: T1, human CDCP1 on tumor cells
Assay: flow cytometry, MDA-MB-231 cells
Procedure: Referring to the method of Example 4, MDA-MB-231 cells were taken and subjected to digestion with 5 mM EDTA, 2×10⁴ tumor cells were added respectively per well, and 50 μL (PBS+2% FBS) were added; after blocking at room temperature with Fc blocker for 10 mins, an anti-CDCP1 humanized antibody at a final concentration of 200 nM was added. The obtained mixture was subjected to a 3-fold serial dilution across 8 concentration points, incubated at 4° C. for 30 mins, centrifuged and washed, and then a secondary antibody (PE anti-human IgG Fc Antibody, Biolegend, 410708) was added, then detection was performed using a flow cytometer. Geo-MFI (geometric mean fluorescence signal value) was used as the preliminary signal of antibody-cell binding, curve fitting was performed using graphpad, and the binding capacity of antibody to cells was calculated.

Binder	EC50 [nM]
1CP-117 (antibody, human IgG1, kappa, V domains shown, humanized 8E5, human IgG1 kappa) VH: QVQLVQSGSELKKPGASVKVSCKASGYTLTDFSMHWVRQAPGQGLEWMGWINTETGAPTYADDFKGRFVLSLDTSVSTAYLQISSLKAEDTAVYYCSRGRDYDPHFDYWGQGTLVTVSS VL: EIVLTQSPATLSLSPGERATLSCRASQSISDFLHWYQQKPGQSPRLLIKYASQSISGIPARFSGSGSGSDFTLTISSVEPEDFAVYYCQSAHSFPYTFGQGTKLEIKR	1.3
1CP-121 (antibody, human IgG1, kappa, V domains shown, humanized 8E5, human IgG1 kappa) VH: QVQLVQSGSELKKPGASVKVSCKASGYTLTDFSMHWVRQAPGQGLEWMGWINTETGAPTYADDFKGRFVLSLDTSVSTAYLQISSLKAEDTAVYYCSRGRDYDPHFDYWGQGTLVTVSS VL: EIVLTQSPATLSLSPGERATLSCRASQSISDFLHWYQQKSGQSPRLLIKYASQSISGIPARFSGSGSGSDFTLTISSVEPEDFAVYYCQSAHSFPYTFGQGTKLEIKR	1.37
1CP-124 (antibody, human IgG1, kappa, V domains shown, humanized 3C11, human IgG1 kappa) VH: QVQLVQSGAEVKKPGASVKVSCKASGYNFISYWLHWVRQAPGQGLEWMGGIYPGNTDTTYNQKFKGRVTMTRDTSTSTVYMELSSLRSEDTAVYYCIRYDYDRGMDYWGQGTLVTVSS VL: DIQMTQSPSSLSASVGDRVTITCRASEDIYYRLAWYQQKPGKAPKLLISGATALETGVPSRFSGSGSGKDYTFTISSLQPEDIATYYCQHYWNIPWTFGQGTKVEIKR	0.38
1CP-125 (antibody, human IgG1, kappa, V domains shown, humanized 3C11, human IgG1 kappa) VH: QVQLVQSGAEVKKPGASVKVSCKASGYNFISYWLHWVRQAPGQGLEWMGGIYPGNTDTTYNQKFKGRVTMTADTSTSTVYMELSSLRSEDTAVYYCIRYDYDRGMDYWGQGTLVTVSS VL: DIQMTQSPSSLSASVGDRVTITCRASEDIYYRLAWYQQKPGKAPKLLISGATALETGVPSRFSGSGSGKDYTFTISSLQPEDIATYYCQHYWNIPWTFGQGTKVEIKR	0.95
1CP-128 (antibody, human IgG1, kappa, V domains shown, humanized 3C11, human IgG1 kappa) VH: QVQLVQSGAEVKKPGASVKVSCKASGYNFISYWLHWVRQAPGQGLEWMGGIYPGNTDTTYNQKFKGRVTMTRDTSTSTVYMELSSLRSEDTAVYYCIRYDYDRGMDYWGQGTLVTVSS VL: DIQMTQSPSSLSASVGDRVTITCRASEDIYYRLAWYQQKPGKAPKLLISGATALETGVPSRFSGSGSGKDYTLTISSLQPEDIATYYCQHYWNIPWTFGQGTKVEIKR	0.32
1CP-129 (antibody, human IgG1, kappa, V domains shown, humanized 3C11, human IgG1 kappa) VH: QVQLVQSGAEVKKPGASVKVSCKASGYNFISYWLHWVRQAPGQGLEWMGGIYPGNTDTTYNQKFKGRVTMTADTSTSTVYMELSSLRSEDTAVYYCIRYDYDRGMDYWGQGTLVTVSS VL: DIQMTQSPSSLSASVGDRVTITCRASEDIYYRLAWYQQKPGKAPKLLISGATALETGVPSRFSGSGSGKDYTLTISSLQPEDIATYYCQHYWNIPWTFGQGTKVEIKR	0.34
1CP-152 (antibody, human IgG1, kappa, V domains shown, humanized 8C9, human IgG1 kappa) VH: EVQLVESGGGLVQPGRSLRLSCTTSGLTFTHYHMSWVRQAPGKGLEWVAIIRNKAYGYTTDYSASVRGRFTISRDDSKSILYLQMNSLKTEDTAVYYCVREGGYGYDGTFAYWGQGTLVTVSS VL: DIQMTQSPSSLSASVGDRVTITCRASESVDNYGISFMNWFQQKPGQAPKLLIYAASNQGSGVPSRFSGSGSGTDFTLTISSMQPEDFATYYCQQSKEVPRTFGGGTKVEIKR	2.82
1CP-157 (antibody, human IgG1, kappa, V domains shown, humanized 8C9, human IgG1 kappa) VH: EVQLVESGGGLVQPGRSLRLSCTTSGLTFTHYHMSWVRQAPGKGPEWVAIIRNKAYGYTTDYSASVRGRFTISRDDSKSILYLQMNSLKTEDTAVYYCVREGGYGYDGTFAYWGQGTLVTVSS VL: DIQMTQSPSSLSASVGDRVTITCRASESVDNYGISFMNWFQQKPGQPPKLLIYAASNQGSGVPSRFSGSGSGTDFTLTISSMQPEDFATYYCQQSKEVPRTFGGGTKVEIKR	2.5
